Substitutions are numbered along the chain they refer to.

The chains are these.
B1: KN035 single domain antibody mutant m3 (VHH)
VHH: QVQLQESGGGLVQPGGSLRLSCAASGKMSSRRCMAWFRQAPGKERERVADVNPNSGGSIYNQRFKGRFTISQNNAKSTVYLQMNSLKPEDTAMYYCAADSFEDPTCTLVTSSGAFQYWGQGTQVTVSS
notes: not shown: C-terminal His-tag (obtained 'by the above method')
B2: KN035 sdAb mutant 1 (VHH)
VHH: QVQLQESGGGSVQAGGSLRLSCAASGKMSSRRCMGWFRQAPGKERVGVAAIDSDGTTKYADSMKGRFTISKDNAKNTLDLQMNSLKPEDTAMYYCVADSFEDPTCTLVTSSGAFQYRGQGTQVTVSS
notes: Expressed in HEK293, IMAC purified; not shown: C-terminal His-tag
B3: KN035 sdAb mutant 2 (VHH)
VHH: B2 VHH with E44Q, A50T, K58R, A60V, M63V, V96A
notes: not shown: C-terminal His-tag

The target in one assay is T1, hPD-L1-Fc (human, UniProt Q9NZQ7 20-239, limits assumed).
T1 construct: also called PDL1-Fc fusion protein; human PDL1 protein; not shown: Fc part
T1 sequence (Q9NZQ7 other isoform, or with tags, fused parts or gaps limits assumed): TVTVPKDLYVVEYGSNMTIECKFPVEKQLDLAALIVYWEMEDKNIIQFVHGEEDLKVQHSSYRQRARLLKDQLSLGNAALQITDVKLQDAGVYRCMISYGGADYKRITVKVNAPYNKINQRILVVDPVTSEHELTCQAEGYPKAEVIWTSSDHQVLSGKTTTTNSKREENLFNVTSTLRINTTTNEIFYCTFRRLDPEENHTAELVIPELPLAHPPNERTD
The assay can be described thus: competitive ELISA, hPD-L1-Fc coated, competitor hPD-1-hIgG-biotin 10 ug/ml; against wild-type KN035. In general terms: An ELISA detects its analyte on a solid surface through an enzyme-linked reagent.
For B1, the “Relative blocking activity (EC50 wt/EC50 m × 100%)” value turned out to be 91%.

Regarding B2, the “Relative blocking activity (EC50 wt/EC50 m × 100%)” value worked out at 80%.

As to B3, the “Relative blocking activity (EC50 wt/EC50 m × 100%)” value is 71%.

The target of the next assay is T1, hPD-L1-Fc. The assay can be described thus: BLI (Octet K2), hPD-L1-Fc on AHC sensor, sdAb variant in solution; against wild-type KN035. (In general: Biolayer interferometry detects binding as a change in optical thickness at a sensor tip.)
As for B1, the KD/KD wt turned out to be 2.01 ratio.

Take B2: the KD/KD wt amounted to 1.21 ratio.

B3 had a KD/KD wt of 1.73 ratio.

Source of the values: US20190352404A1 (SUZHOU ALPHAMAB, published 2019).
